Results taken from US9993566B2, “SEZ6 modulators and methods of use” (AbbVie Stemcentrx LLC, priority 2013, dated 2018).

Experiments:
[1] = test system: LU124p2 parental cell line; test: Oxaliplatin sensitivity, Cell Titer Glo dose response; assay type: cell-based, human; conditions: seven days in culture
From the text: (§1) Cisplatin and its derivatives, including oxaliplatin are the chemotherapeutic standard of care for SCLC. An oxaliplatin-resistant SCLC PDX line was developed due to concerns that cisplatin may not be stable in tissue culture medium (Schuldes et al., 1997, PMID: 9128988). The oxaliplatin-resistant SCLC line was generated by isolating human cells from LU124p2, a SCLC PDX line that had been passaged subcutaneously twice through NOD.SCID mice. LU124p2 tumors were resected from mice after reaching 800-2,000 mm^3, dissociated into single cell suspensions using art-recognized enzymatic digestion techniques (see, for example, US2007/0292414), and depleted of murine cells. The cells were then washed and cultured in 5% oxygen and serum-free medium and immediately treated with 1 μM of oxaliplatin. After seven days of exposure to oxaliplatin, the cells were washed and allowed to recover for two weeks in standard serum-free media with fresh renewal of medium twice a week. After the recovery period, the cells were washed and re-plated into a new flask with 1 μM of oxaliplatin for seven more days, followed by a final wash and a two week recovery period. The resulting cell line was termed LU124OXAHIp2. Single cell suspensions were generated using Versene (Invitrogen). Some of the cells were injected into mice to propagate the LU124OXAHIp2 cell line, while other cells were cultured in vitro to test sensitivity to oxaliplatin.
(§2) Oxaliplatin sensitivity of LU124OXAHIp2 was tested as follows: LU124OXAHIp2 cells were plated onto 96-well plates and treated with a titration of oxaliplatin in serum-free medium as is standard in the art. After seven days in culture, cells were harvested using Cell Titer Glo® (Promega) as per the manufacturer's instructions and dose response curves were obtained. […] To determine whether the resistance was stable, LU124OXAHIp2 cells were passaged again through immunocompromised mice to yield the cell line called LU124OXAHIp3.

LU124OXAHIp3 cells = test: as above; assay type: cell-based, human; conditions: after further passage through mice without oxaliplatin
From the text: as §1, §2

LU124OXAHIp2 cells = test: as above; assay type: cell-based, human; conditions: seven days in culture, oxaliplatin-resistant line
From the text: as §1, §2

[2] = test system: HEK293 cells overexpressing SEZ6; test: In vitro cytotoxicity of ADC; assay type: cell-based, human
Method: The final ADC was analyzed for protein concentration (by measuring UV), aggregation (SEC), drug to antibody ratio (DAR) by reverse phase (RP) HPLC, presence of unconjugated antibody by hydrophobic interaction chromatography (HIC) HPLC, non-proteinaceous materials by RP HPLC and in vitro cytotoxicity using a SEZ6 expressing cell line.

LU80 tumor = test: SCLC NTX tumor volume in immunodeficient mice, humanized ADCs; assay type: in vivo, human; conditions: three injections of 1 mg/kg over seven days
Method: (§3) The ability of humanized anti-SEZ6 ADCs to reduce SCLC tumor volume was also tested. Anti-SEZ6 ADCs (hSC17.17, hSC17.24, hSC17.34 and hSC17.46), and the human IgG1 isotype control ADC (huIgG1) were administered to immunodeficient mice bearing various patient derived NTX tumors. Mice were given three injections of 1 mg/kg (indicated by the vertical lines in FIGS. 18C and 18D) over a period of seven days. Following treatment, tumor volumes and mouse weights were monitored until tumors exceeded 800 mm^3 or mice became sick. Complete and durable elimination of tumor mass was achieved by the administration of humanized anti-SEZ6 ADCs in four SCLC tumors.

LU64 tumor = test: as above; assay type: in vivo, human; conditions: three injections of 1 mg/kg over seven days
Method: as §3

LU117 tumor = test: as above; assay type: in vivo, human; conditions: three injections of 1 mg/kg over seven days
Method: as §3

Row | Molecule | IC50 [1] [nM] | resistance to oxaliplatin, LU124OXAHIp3 (LU124OXAHIp3 cells) | IC50 (LU124OXAHIp2 cells) [nM] | IC50 [2] [nM] | tumor volume, LU80 (LU80 tumor) | tumor volume, LU64 (LU64 tumor) | tumor volume, LU117 (LU117 tumor)
1 | O=C1[O][Pt]2([NH][C@@H]3CCCC[C@H]3[NH]2)[O]C1=O [oxaliplatin] | 36 | Resistance was maintained | 2000 to 2500 |  |  |  | 
2 | hSC17.17-ADC1 (conjugate) VL: EIVLTQSPATLSLSPGERATLSCSASSSVSYMHWYQQKPGQAPRLLIYDTSKLPSGIPARFSGSGSGTDFTLTISSLEPEDFAVYYCQQWSSTPPTFGQGTKLEIK VH: QVQLVQSGAEVKKPGASVKVSCKASGYTFTDYNMHWVRQAPGQGLEWMGEINPNIGGTGYNQKFKGRVTMTRDTSISTAYMELSRLRSDDTAVYYCARTYSYYSYEFAYWGQGTLVTVSS |  |  |  | 11 | reduction | elimination | reduction
